In patent US20020025923A1:

Target: PNAd (peripheral node addressin), MECA-79 purified human tonsil lysate
Assay: precipitation of PNAd with the chimera

percent precipitated: > 90%
B1: L-selectin/IgG chimera (entire extracellular domain of murine L-selectin fused to the Fc domain of human IgG1) (Fc fusion, UniProt P18337 39-332, looked up, not shown: a dimerising Fc or GST)
chain: WTYHYSEKPMNWENARKFCKQNYTDLVAIQNKREIEYLENTLPKSPYYYWIGIRKIGKMWTWVGTNKTLTKEAENWGAGEPNNKKSKEDCVEIYIKRERDSGKWNDDACHKRKAALCYTASCQPGSCNGRGECVETINNHTCICDAGYYGPQCQYVVQCEPLEAPELGTMDCIHPLGNFSFQSKCAFNCSEGRELLGTAETQCGASGNWSSPEPICQVVQCEPLEAPELGTMDCIHPLGNFSFQSKCAFNCSEGRELLGTAETQCGASGNWSSPEPICQETNRSFSKIKEGDYN
